Legend:
HA-PGBD1 [1] = target: T1, HA-PGBD1 (Homo sapiens, UniProt Q96JS3 1-809); experiment: competition
T1 sequence: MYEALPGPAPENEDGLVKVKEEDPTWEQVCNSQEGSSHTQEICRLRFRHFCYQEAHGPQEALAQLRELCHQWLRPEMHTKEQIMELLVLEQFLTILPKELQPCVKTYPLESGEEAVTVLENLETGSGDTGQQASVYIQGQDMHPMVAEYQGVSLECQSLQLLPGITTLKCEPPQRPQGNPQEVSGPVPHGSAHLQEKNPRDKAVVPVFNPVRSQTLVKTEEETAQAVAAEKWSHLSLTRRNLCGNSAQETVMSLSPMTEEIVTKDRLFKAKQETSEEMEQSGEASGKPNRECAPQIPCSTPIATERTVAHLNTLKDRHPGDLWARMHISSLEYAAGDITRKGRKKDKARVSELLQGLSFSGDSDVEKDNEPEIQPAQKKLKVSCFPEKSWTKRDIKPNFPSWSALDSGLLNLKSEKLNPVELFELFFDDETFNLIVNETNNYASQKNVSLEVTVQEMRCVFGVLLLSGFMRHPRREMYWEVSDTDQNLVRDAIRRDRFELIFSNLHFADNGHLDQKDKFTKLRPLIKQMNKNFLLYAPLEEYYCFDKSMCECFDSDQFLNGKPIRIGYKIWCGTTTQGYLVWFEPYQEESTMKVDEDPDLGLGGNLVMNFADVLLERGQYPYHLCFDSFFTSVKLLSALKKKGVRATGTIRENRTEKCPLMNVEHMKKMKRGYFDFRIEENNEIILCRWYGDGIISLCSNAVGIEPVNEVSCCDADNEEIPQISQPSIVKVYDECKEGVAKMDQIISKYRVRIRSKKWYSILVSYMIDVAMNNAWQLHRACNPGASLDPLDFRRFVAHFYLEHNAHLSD

HA-PGBD1 [2] = target: T1, HA-PGBD1; experiment: EMSA

B1: unlabelled PGBD1 oligo (competitor) (dsDNA)
DNA 1: GCTTTCAATGGAATGGAATGCCTTCC
DNA 2: GGAAGGGATTCCATTCCATTGAAAGC
B1: binds (HA-PGBD1 [1]).

B2: SCAN-12 / PGBD1 oligo (GS-PGBD1-UP/LOW) (dsDNA)
DNA 1: GCTTTCAATGGAATGGAATGCCTTCC
DNA 2: GGAAGGGATTCCATTCCATTGAAAGC
B2: binds (HA-PGBD1 [2]).
